# Assay results as given in paper doi:10.1101/518761.
# Molecular target: gp53C, C-terminal fragment of gene product 53 (gp53) of Acinetobacter baumannii bacteriophage AP22 (Acinetobacter baumannii bacteriophage AP22)
# Assay: crystal structure
substance,measurement,value
"gp53C, C-terminal fragment of gene product 53 (gp53) of Acinetobacter baumannii bacteriophage AP22 (domain or fragment)",stoichiometry N,3
